{
  "source": "paper PMC5829129",
  "about": "“Synthesis of an Al^18F radiofluorinated GLU-UREA-LYS(AHX)-HBED-CC PSMA ligand in an automated synthesis platform” (EJNMMI Radiopharmacy and Chemistry, 2018)",
  "key": {"[1]": {"type": "physicochemical", "settings": "for Radiochemical purity in the final formulation at room temperature: final formulation vial, HPLC C8, gamma detector, n = 3", "description": "The radiochemical purity (RP) was determined using HPLC analysis, a reverse phase column Agilent ZORBAX Eclipse Plus C8 4.6x150mm 5 μm column, flux 2.0 mL/min and the following solvent gradient: (A) TFA 0.1% (v/v) in water, (B) TFA 0.1% (v/v) in acetonitrile; 0–7 min 0 %B, 7–10 min (0–50) %B with GAMMA detector. The stability in the labeling milieu, after purification and preconditioning [^18F]-AlF-PSMA, was performed after incubation the final formulation vial at room temperature for 4 h. In both cases, samples were analyzed by HPLC, using previously described chromatographic conditions."}, "[2]": {"test_system": "LNCaP human prostate cancer cell line xenograft", "test": "In vivo PET/CT imaging of LNCaP xenograft mice, tumour/muscle ratio", "set-up": "species or system Nude N: NIH (S) – Foxn 1nu mice", "settings": "PET, 60 min after iv injection (33–46 MBq), LNCaP xenograft nude mice, n = 3", "description": "Nude N: NIH (S) – Foxn 1nu mice […] were used as prostate cancer tumour model, for in vivo studies. Animals were housed in racks with filtered air under controlled conditions temperature (24 ± 1) °C and relative humidity (40–60)%). They were maintained on a 14:10 h light/dark cycles in the CUDIM animal facility with food and water ad libitum.\nFor the development of a xenographic human prostate cancer model, LNCaP human prostate cancer cell line (ATCC ATCC® CRL-1740™).\nA xenographic human prostate cancer model was used as the prostate cancer tumour model. 5 million LNCaP cells, suspended in 200 μL of culture media (RPMI) with matrix gel, were injected subcutaneously into the left upper leg of male nude mice (2 months old). Appropriate tumour volumes (100–350 mm^3) were achieved between four to six weeks post inoculation. Percutaneous testorerone was daily applied to each mice. Tumours were measured once a week with a microcalliper in two dimensions, and tumour volumes were calculated as (smaller diameter)^2 x larger diameter x π/6.\nPET/CT scans were performed using a small animal tri-modality PET/SPECT/CT scanner (TriumphTM, TriFoil, Inc., US) based on Quad-APD detector modules coupled with LYSO/LGSO scintillators (spatial resolution: 1.0 mm; axial field of view (FOV): 3.75 cm). […]\nImage processing and semi-quantitative analysis was done using PMOD software, v.3.4. […]"}, "[3]": {"settings": "cited from earlier work", "source_text": "However, the work of S. Lütje, et al. presented in the EANM 2017, obtain a product which is not stable in PBS, TFA or ethanol. In addition, the product presented in vivo a bone uptake associated with instability of the compound. (Lütje et al. [2017]). Nevertheless E. Al-Momani et al. (Al-Momami et al. [2017]) reported that the stability of the radiopharmaceutical was highly dependent of the formulation conditions, being stable in saline solution with 1% of ethanol or acetate buffer pH 6, and not stable in ethanol 10%/PBS. || Our results with the automated synthesis were in agreement with those previously reported by N. Malik, et by a manual process. In this paper the optimal pH of labeling turned out to be 5 and the stability was greater than 90% at 4 h post production (Malik et al. [2015]). || Recently Kersemans et al. ([n.d.]) have reported an automated synthesis of this radiopharmaceutical in a modified SynthraFCHOL synthesis module (Synthra GmbH, Hamburg, Germany), with a similar e.o.s yield. 100 to 200 μg of the peptide were necessary to achieve a labelling yield higher than 70%. The radiopharmaceutical was stable in buffer phosphate 5 mM pH 7 at least during 150 min."}, "[4]": {"settings": "cited from earlier work", "source_text": "However, the work of S. Lütje, et al. presented in the EANM 2017, obtain a product which is not stable in PBS, TFA or ethanol. In addition, the product presented in vivo a bone uptake associated with instability of the compound. (Lütje et al. [2017]). Nevertheless E. Al-Momani et al. (Al-Momami et al. [2017]) reported that the stability of the radiopharmaceutical was highly dependent of the formulation conditions, being stable in saline solution with 1% of ethanol or acetate buffer pH 6, and not stable in ethanol 10%/PBS.", "remark": "listed apart in the source"}},
  "note": "Read-outs that look alike come from different tables or passages of the source.",
  "data": [
    {"substance": "[^18F]AlF-[GLU-UREA-LYS(AHX)-HBED-CC] [[^18F]AlF-PSMA-11]", "values": [
      {"measurement": "Time of stability in the final formulation vial", "setting": "[1]", "result": 4, "unit": "h"},
      {"measurement": "Radiochemical purity in the final formulation vial", "setting": "[1]; during 4 h post production, room temperature, HPLC", "result": "greater than 90%"},
      {"measurement": "Radiochemical purity in the final formulation at room temperature", "setting": "[1]; room temperature, 1 h post synthesis", "result": "94.6 ± 1.8", "unit": "%"},
      {"measurement": "Radiochemical purity in the final formulation at room temperature", "setting": "[1]; room temperature, 2 h post synthesis", "result": "92.8 ± 2.5", "unit": "%"},
      {"measurement": "Radiochemical purity in the final formulation at room temperature", "setting": "[1]; room temperature, 3 h post synthesis", "result": "93.7 ± 2.0", "unit": "%"},
      {"measurement": "Radiochemical purity in the final formulation at room temperature", "setting": "[1]; room temperature, 4 h post synthesis", "result": "94.2 ± 2.8", "unit": "%"},
      {"measurement": "mean T/M ratio (T = Tumor, M = muscle)", "setting": "[2]", "result": "2.2 ± 0.9"},
      {"measurement": "Stability in PBS, TFA or ethanol", "setting": "[3]", "result": "not stable"},
      {"measurement": "Stability in ethanol 10%/PBS", "setting": "[3]", "result": "not stable"},
      {"measurement": "Stability at 4 h post production", "setting": "[3]; pH 5", "result": "greater than 90%"},
      {"measurement": "Stability in saline solution with 1% of ethanol or acetate buffer pH 6", "setting": "[3]; pH 6", "result": "stable"},
      {"measurement": "Time of stability in buffer phosphate 5 mM pH 7", "setting": "[3]; pH 7", "result": "≥ 150", "unit": "min"},
      {"measurement": "In vivo bone uptake associated with instability of the compound", "setting": "[4]", "result": "bone uptake"}
    ]}
  ]
}
